Laboratory results: the supplement of paper PMC9112550, “Optimization of the antimicrobial peptide Bac7 by deep mutational scanning” (BMC Biology, 2022)

The sequences below were run on Escherichia coli TOP10 (assay: shrunken log2 fold change of peptide-encoding DNA abundance (4.5 h post-induction vs induction); higher = less antimicrobial activity (less host growth inhibition)). Conditions: time post-induction: 4.5 h; library: site-saturation at positions 5, 18, 19, 20.
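Note: peptides expressed intracellularly from a pBAD plasmid library in pooled LB shake-flask culture, induced with 0.3% L-arabinose, DNA abundance read by NGS, three biological replicates, DESeq2 with apeglm shrinkage.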

Sequence	shrunken log2 fold change
RRIRCRPPRLPRPRPRPIRTPRP	-0.673
RRIRCRPPRLPRPRPRPISGPRP	0.0437
RRIRCRPPRLPRPRPRPISKPRP	-0.37
RRIRCRPPRLPRPRPRPISLPRP	-0.426
RRIRCRPPRLPRPRPRPISPPRP	0.153
RRIRCRPPRLPRPRPRPIVIPRP	-1.09
RRIRCRPPRLPRPRPRPIWNPRP	-0.343
RRIRCRPPRLPRPRPRPKAEPRP	0.173
RRIRCRPPRLPRPRPRPKALPRP	0.0255
RRIRCRPPRLPRPRPRPKDSPRP	-0.198
RRIRCRPPRLPRPRPRPKEAPRP	0.085
RRIRCRPPRLPRPRPRPKEQPRP	0.0429
RRIRCRPPRLPRPRPRPKERPRP	0.238
RRIRCRPPRLPRPRPRPKFEPRP	0.00386
RRIRCRPPRLPRPRPRPKFGPRP	0.231
RRIRCRPPRLPRPRPRPKFNPRP	-0.477
RRIRCRPPRLPRPRPRPKGCPRP	0.00419
RRIRCRPPRLPRPRPRPKHNPRP	-0.325
RRIRCRPPRLPRPRPRPKKKPRP	-0.0938
RRIRCRPPRLPRPRPRPKNEPRP	-0.1
RRIRCRPPRLPRPRPRPKPYPRP	0.179
RRIRCRPPRLPRPRPRPKQFPRP	-0.188
RRIRCRPPRLPRPRPRPKQMPRP	0.364
RRIRCRPPRLPRPRPRPKQVPRP	0.44
RRIRCRPPRLPRPRPRPKRAPRP	0.778

Sequence	shrunken log2 fold change
RRIRCRPPRLPRPRPRPKREPRP	0.636
RRIRCRPPRLPRPRPRPKSFPRP	-0.288
RRIRCRPPRLPRPRPRPKTFPRP	-0.138
RRIRCRPPRLPRPRPRPKTGPRP	-0.0569
RRIRCRPPRLPRPRPRPKTQPRP	0.0268
RRIRCRPPRLPRPRPRPKWFPRP	0.0996
RRIRCRPPRLPRPRPRPKYAPRP	-0.0494
RRIRCRPPRLPRPRPRPLARPRP	0.0547
RRIRCRPPRLPRPRPRPLCAPRP	0.12
RRIRCRPPRLPRPRPRPLCKPRP	-0.541
RRIRCRPPRLPRPRPRPLCNPRP	-0.244
RRIRCRPPRLPRPRPRPLCVPRP	-0.481
RRIRCRPPRLPRPRPRPLDDPRP	-0.119
RRIRCRPPRLPRPRPRPLDWPRP	0.285
RRIRCRPPRLPRPRPRPLEMPRP	-0.249
RRIRCRPPRLPRPRPRPLFQPRP	-0.417
RRIRCRPPRLPRPRPRPLGAPRP	0.444
RRIRCRPPRLPRPRPRPLGIPRP	-0.149
RRIRCRPPRLPRPRPRPLHPPRP	0.199
RRIRCRPPRLPRPRPRPLIAPRP	-0.0852
RRIRCRPPRLPRPRPRPLIPPRP	-0.366
RRIRCRPPRLPRPRPRPLIRPRP	-0.109
RRIRCRPPRLPRPRPRPLITPRP	-0.125
RRIRCRPPRLPRPRPRPLIYPRP	-0.764
RRIRCRPPRLPRPRPRPLKFPRP	-0.162

Sequence	shrunken log2 fold change
RRIRCRPPRLPRPRPRPLKLPRP	-0.271
RRIRCRPPRLPRPRPRPLLSPRP	-0.306
RRIRCRPPRLPRPRPRPLMKPRP	-0.275
RRIRCRPPRLPRPRPRPLPDPRP	0.33
RRIRCRPPRLPRPRPRPLPEPRP	0.397
RRIRCRPPRLPRPRPRPLPGPRP	0.262
RRIRCRPPRLPRPRPRPLPRPRP	0.612
RRIRCRPPRLPRPRPRPLPYPRP	-0.804
RRIRCRPPRLPRPRPRPLQDPRP	0.0354
RRIRCRPPRLPRPRPRPLQPPRP	-0.0133
RRIRCRPPRLPRPRPRPLSQPRP	0.0133
RRIRCRPPRLPRPRPRPLTQPRP	0.189
RRIRCRPPRLPRPRPRPLVFPRP	-0.317
RRIRCRPPRLPRPRPRPLVVPRP	-0.347
RRIRCRPPRLPRPRPRPLWFPRP	-0.315
RRIRCRPPRLPRPRPRPLWWPRP	0.204
RRIRCRPPRLPRPRPRPLYHPRP	-0.695
RRIRCRPPRLPRPRPRPMAEPRP	0.331
RRIRCRPPRLPRPRPRPMCLPRP	-0.201
RRIRCRPPRLPRPRPRPMCRPRP	-0.274
RRIRCRPPRLPRPRPRPMGCPRP	-0.0697
RRIRCRPPRLPRPRPRPMGNPRP	-0.729
RRIRCRPPRLPRPRPRPMIRPRP	-0.0688
RRIRCRPPRLPRPRPRPMKCPRP	-0.173
RRIRCRPPRLPRPRPRPMKHPRP	-0.486

Sequence	shrunken log2 fold change
RRIRCRPPRLPRPRPRPMKPPRP	0.0236
RRIRCRPPRLPRPRPRPMKTPRP	-0.11
RRIRCRPPRLPRPRPRPMLGPRP	-0.0961
RRIRCRPPRLPRPRPRPMLPPRP	-0.00464
RRIRCRPPRLPRPRPRPMLSPRP	-0.202
RRIRCRPPRLPRPRPRPMMVPRP	-0.659
RRIRCRPPRLPRPRPRPMNWPRP	-0.217
RRIRCRPPRLPRPRPRPMPTPRP	0.592
RRIRCRPPRLPRPRPRPMQAPRP	0.249
RRIRCRPPRLPRPRPRPMQEPRP	-0.0194
RRIRCRPPRLPRPRPRPMQVPRP	-0.0376
RRIRCRPPRLPRPRPRPMQWPRP	0.226
RRIRCRPPRLPRPRPRPMSWPRP	-0.159
RRIRCRPPRLPRPRPRPMTVPRP	-0.0302
RRIRCRPPRLPRPRPRPMTWPRP	-0.383
RRIRCRPPRLPRPRPRPMVIPRP	-0.373
RRIRCRPPRLPRPRPRPMYFPRP	-0.796
RRIRCRPPRLPRPRPRPMYRPRP	-0.319
RRIRCRPPRLPRPRPRPNACPRP	-0.0874
RRIRCRPPRLPRPRPRPNAGPRP	-0.0355
RRIRCRPPRLPRPRPRPNALPRP	0.0653
RRIRCRPPRLPRPRPRPNCPPRP	-0.413
RRIRCRPPRLPRPRPRPNDCPRP	-0.0147
RRIRCRPPRLPRPRPRPNDGPRP	-0.00783
RRIRCRPPRLPRPRPRPNDHPRP	-0.716

Sequence	shrunken log2 fold change
RRIRCRPPRLPRPRPRPNDRPRP	-0.299
RRIRCRPPRLPRPRPRPNEVPRP	-0.153
RRIRCRPPRLPRPRPRPNGAPRP	-0.0129
RRIRCRPPRLPRPRPRPNGWPRP	-0.183
RRIRCRPPRLPRPRPRPNHWPRP	-0.0209
RRIRCRPPRLPRPRPRPNIQPRP	-0.584
RRIRCRPPRLPRPRPRPNKMPRP	-0.393
RRIRCRPPRLPRPRPRPNLCPRP	-0.427
RRIRCRPPRLPRPRPRPNMMPRP	-0.475
RRIRCRPPRLPRPRPRPNNGPRP	-0.451
RRIRCRPPRLPRPRPRPNPIPRP	-0.423
RRIRCRPPRLPRPRPRPNQFPRP	-0.23
RRIRCRPPRLPRPRPRPNQTPRP	-0.185
RRIRCRPPRLPRPRPRPNRNPRP	-0.562
RRIRCRPPRLPRPRPRPNSYPRP	-0.54
RRIRCRPPRLPRPRPRPNTAPRP	-0.22
RRIRCRPPRLPRPRPRPNTCPRP	-0.463
RRIRCRPPRLPRPRPRPNWEPRP	0.0349
RRIRCRPPRLPRPRPRPNYAPRP	-0.0784
RRIRCRPPRLPRPRPRPPCAPRP	0.354
RRIRCRPPRLPRPRPRPPDHPRP	0.279
RRIRCRPPRLPRPRPRPPDYPRP	0.0368
RRIRCRPPRLPRPRPRPPFPPRP	0.302
RRIRCRPPRLPRPRPRPPFWPRP	0.649
RRIRCRPPRLPRPRPRPPGRPRP	1.16

Sequence	shrunken log2 fold change
RRIRCRPPRLPRPRPRPPIFPRP	-0.197
RRIRCRPPRLPRPRPRPPKVPRP	-0.138
RRIRCRPPRLPRPRPRPPMEPRP	0.245
RRIRCRPPRLPRPRPRPPPRPRP	1.9
RRIRCRPPRLPRPRPRPPQAPRP	0.735
RRIRCRPPRLPRPRPRPPQIPRP	0.328
RRIRCRPPRLPRPRPRPPQSPRP	0.839
RRIRCRPPRLPRPRPRPPQWPRP	0.446
RRIRCRPPRLPRPRPRPPRHPRP	0.646
RRIRCRPPRLPRPRPRPPSGPRP	0.233
RRIRCRPPRLPRPRPRPPSSPRP	-0.0857
RRIRCRPPRLPRPRPRPPSTPRP	-0.0239
RRIRCRPPRLPRPRPRPPSYPRP	-0.457
RRIRCRPPRLPRPRPRPPYDPRP	-0.0699
RRIRCRPPRLPRPRPRPPYNPRP	-0.618
RRIRCRPPRLPRPRPRPQCAPRP	0.166
RRIRCRPPRLPRPRPRPQCEPRP	-0.128
RRIRCRPPRLPRPRPRPQCYPRP	-0.474
RRIRCRPPRLPRPRPRPQDDPRP	0.0976
RRIRCRPPRLPRPRPRPQDVPRP	-0.176
RRIRCRPPRLPRPRPRPQEQPRP	0.0612
RRIRCRPPRLPRPRPRPQFYPRP	-0.782
RRIRCRPPRLPRPRPRPQGAPRP	-0.144
RRIRCRPPRLPRPRPRPQGEPRP	0.161
RRIRCRPPRLPRPRPRPQGLPRP	0.161
